Measurements: article PMC9377746 (Molecular Cancer Therapeutics, 2022)

B1: bexmarilimab (antibody, V domains shown)
VH: QVTLKESGPTLVKPTQTLTLTCSFSGFSLSTSGMGIGWIRQPPGKALEWLAHIWWDDDKRYNPALKSRLTISKDTSKNQVVLTMTNMDPVDTATYYCARHYGYDPYYAMDYWGQGTLVTVSS
VL: EIVLTQSPGTLSLSPGERATLSCTASSSVSSSYLHWYQQKPGKAPKLLIYRTSNLASGVPSRFSGSGSGTDYTLTISSLQPEDFATYYCHQYHRSPPTFGQGTKLEIK

How the values were obtained:
human FcγRIIb (human) = human FcγRIIb (human) (UniProt P31994); assay: SPR
[1] = target: purified cynomolgus Clever-1 (Macaca fascicularis, UniProt A0A2K5VS84); assay: SPR
purified human Clever-1 = purified human Clever-1 (Homo sapiens, UniProt Q9NY15); assay: SPR
purified human Clever-1, sequence (Q9NY15 26-2570): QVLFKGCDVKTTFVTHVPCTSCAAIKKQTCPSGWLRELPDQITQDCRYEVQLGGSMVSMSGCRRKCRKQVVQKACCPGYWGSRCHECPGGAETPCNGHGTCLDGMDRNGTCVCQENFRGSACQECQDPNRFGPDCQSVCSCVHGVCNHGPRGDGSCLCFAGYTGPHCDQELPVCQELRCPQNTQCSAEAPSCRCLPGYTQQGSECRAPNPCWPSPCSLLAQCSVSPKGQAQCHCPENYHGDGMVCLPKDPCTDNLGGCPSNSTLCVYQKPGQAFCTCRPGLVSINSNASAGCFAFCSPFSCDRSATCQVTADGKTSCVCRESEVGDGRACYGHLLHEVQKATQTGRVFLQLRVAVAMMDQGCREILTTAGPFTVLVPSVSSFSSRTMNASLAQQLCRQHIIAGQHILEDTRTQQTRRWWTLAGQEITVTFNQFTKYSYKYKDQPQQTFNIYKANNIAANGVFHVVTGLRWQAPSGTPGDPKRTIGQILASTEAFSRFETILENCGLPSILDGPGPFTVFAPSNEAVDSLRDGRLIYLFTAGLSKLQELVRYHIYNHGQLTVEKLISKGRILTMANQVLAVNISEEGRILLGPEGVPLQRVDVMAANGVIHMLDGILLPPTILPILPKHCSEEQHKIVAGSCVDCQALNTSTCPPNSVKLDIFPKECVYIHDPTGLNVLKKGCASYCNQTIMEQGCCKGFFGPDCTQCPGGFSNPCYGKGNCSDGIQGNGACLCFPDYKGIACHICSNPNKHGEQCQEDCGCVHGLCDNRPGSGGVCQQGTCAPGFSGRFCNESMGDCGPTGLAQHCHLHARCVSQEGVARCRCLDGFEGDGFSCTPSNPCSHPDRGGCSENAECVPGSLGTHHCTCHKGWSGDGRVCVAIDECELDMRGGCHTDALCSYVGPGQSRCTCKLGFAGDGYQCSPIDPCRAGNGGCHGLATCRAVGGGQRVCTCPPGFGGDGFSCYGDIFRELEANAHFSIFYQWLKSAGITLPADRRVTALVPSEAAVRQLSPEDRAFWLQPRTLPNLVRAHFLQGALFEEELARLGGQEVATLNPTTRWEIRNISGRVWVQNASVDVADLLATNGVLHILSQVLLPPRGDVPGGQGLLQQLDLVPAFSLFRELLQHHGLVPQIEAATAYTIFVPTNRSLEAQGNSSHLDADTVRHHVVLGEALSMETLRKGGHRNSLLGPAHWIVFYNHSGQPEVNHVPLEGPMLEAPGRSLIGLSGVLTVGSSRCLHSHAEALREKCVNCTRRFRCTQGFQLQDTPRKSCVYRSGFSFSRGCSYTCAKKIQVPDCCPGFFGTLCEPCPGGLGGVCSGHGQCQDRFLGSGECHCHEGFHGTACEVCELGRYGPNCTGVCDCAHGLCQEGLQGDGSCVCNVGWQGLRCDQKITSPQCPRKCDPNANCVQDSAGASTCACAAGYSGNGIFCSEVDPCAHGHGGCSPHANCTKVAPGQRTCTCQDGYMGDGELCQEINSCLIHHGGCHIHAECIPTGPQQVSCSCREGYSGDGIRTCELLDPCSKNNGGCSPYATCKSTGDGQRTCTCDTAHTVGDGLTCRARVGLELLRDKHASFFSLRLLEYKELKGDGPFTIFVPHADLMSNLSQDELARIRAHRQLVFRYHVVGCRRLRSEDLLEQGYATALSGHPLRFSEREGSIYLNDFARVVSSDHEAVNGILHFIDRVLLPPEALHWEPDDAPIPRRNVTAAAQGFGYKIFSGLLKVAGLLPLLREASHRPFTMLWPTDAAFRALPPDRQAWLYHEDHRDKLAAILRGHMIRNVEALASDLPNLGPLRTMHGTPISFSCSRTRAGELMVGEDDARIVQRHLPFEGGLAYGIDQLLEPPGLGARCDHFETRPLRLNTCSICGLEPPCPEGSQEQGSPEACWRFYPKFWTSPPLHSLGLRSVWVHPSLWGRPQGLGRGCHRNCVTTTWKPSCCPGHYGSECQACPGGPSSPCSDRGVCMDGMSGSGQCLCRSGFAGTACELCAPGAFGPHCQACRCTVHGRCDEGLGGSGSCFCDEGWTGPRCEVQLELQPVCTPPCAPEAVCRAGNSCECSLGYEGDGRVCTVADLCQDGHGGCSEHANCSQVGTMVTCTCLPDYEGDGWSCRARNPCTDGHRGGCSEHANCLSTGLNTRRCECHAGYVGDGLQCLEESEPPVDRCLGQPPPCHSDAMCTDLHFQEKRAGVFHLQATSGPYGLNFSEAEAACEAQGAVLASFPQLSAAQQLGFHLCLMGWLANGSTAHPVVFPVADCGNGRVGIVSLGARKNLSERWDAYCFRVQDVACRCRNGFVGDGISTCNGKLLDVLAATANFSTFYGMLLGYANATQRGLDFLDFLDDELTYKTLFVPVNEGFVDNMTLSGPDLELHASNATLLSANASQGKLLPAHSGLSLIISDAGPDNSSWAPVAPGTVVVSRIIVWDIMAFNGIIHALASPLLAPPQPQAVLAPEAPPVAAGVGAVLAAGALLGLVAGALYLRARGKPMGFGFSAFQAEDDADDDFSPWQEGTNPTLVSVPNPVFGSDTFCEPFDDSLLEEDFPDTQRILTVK

[2] = target: human Clever-1 on cells and in tissue (Homo sapiens, UniProt Q9NY15); assay: flow cytometry on cells
human Clever-1 on cells and in tissue, sequence (Q9NY15 26-2570): as above

human FcγRIIb (human), sequence (P31994 43-310): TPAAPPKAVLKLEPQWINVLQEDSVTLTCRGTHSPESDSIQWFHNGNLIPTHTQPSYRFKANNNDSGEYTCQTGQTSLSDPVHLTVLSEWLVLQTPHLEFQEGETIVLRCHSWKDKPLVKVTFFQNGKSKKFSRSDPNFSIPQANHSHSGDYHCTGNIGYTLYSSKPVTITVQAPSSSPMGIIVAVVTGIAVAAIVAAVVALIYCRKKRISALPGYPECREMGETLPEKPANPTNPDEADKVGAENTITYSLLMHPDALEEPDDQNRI

Molecule | Kd (human FcγRIIb (human)) | Kd [1] | Kd (purified human Clever-1) | EC50 [2]
bexmarilimab (antibody) | 11400 nM |  |  | 
rituximab (antibody) | 5130 nM |  |  | 
B1 |  | 0.92 nM | 0.75 nM | 2.2 nM
